These sequences were tested on AncSZ (assay: phosphorylation enrichment, bacterial display (enrichment ratio); higher = better substrate or ligand; peptides without Tyr show the background).
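Also: 11-residue human phosphosite peptides and single-mutation variants displayed on the E. coli surface, counted by deep sequencing, each peptide's frequency after selection divided by its frequency in the unselected input library; frequency after pTyr selection over input frequency; kinase dosed for 20-30% of maximal phosphorylation in three min.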

Sequence | phosphorylation enrichment
VVLEDYLDIKN [CLCNKB_Y138] | 1.02
SPPPAFTPMSG [ERBB4_Y1056_Y1056F] | 0.597
HSDYQYSQRSQ [PKP2_Y168] | 0.821
VRQQVYKKVEE [HADHA_Y283] | 0.617
FPHVIYARLWR [SMAD4_Y95] | 0.917
HVSISYDIPLT [GAB1_Y307_P311L] | 3.56
RELGEYPLAEY [ALDH1A3_Y492_A493P] | 0.982
RLAQRYLIWEC [SCN5A_Y694] | 1.09
EPFEVYRIVPE [IRF8_Y110_K108E_YF] | 1.05
SFNNKYGMVAQ [APOB_Y276_K273N_YF] | 0.542
QGCSIYKDYYR [PLA2G2D_Y82] | 1.29
TTPGPYRSIYF [MPG_Y71] | 0.595
PYRQWYESHYA [RPS8_Y113] | 1.61
GMTRNYIIFIE [BCO2_Y294] | 0.96
IKIMGSSIRTI [IDS_Y490_Y490S] | 0.557
IKRIDYEFVEM [ADA_Y84_A83D] | 0.89
LTNDRYVATLT [IL6ST_Y396_L397V] | 0.683

Sequence | phosphorylation enrichment
GTCGGYCSVLG [RAB18_Y202_A198T] | 0.532
VRFVDYVLFRS [FAM189B_Y361_S358F] | 1
MALDRYVAICK [OR2B11_Y127] | 0.762
MTKEQYIKMNQ [ARFGEF2_Y797_R802Q] | 0.662
NIFSFYLSRDP [CTSD_Y232] | 0.85
FGTAQYCCRMG [LRRK2_Y2023_I2020T_YF] | 0.663
KKHFSYAWPFY [BRDT_Y291] | 1
DGTGHYLGNAC [GATA5_Y208_C210G] | 0.624
LSSNLYYRWLT [CNGA3_Y168_P163L] | 6.06
MCDSHYLESRS [CLK1_Y56] | 0.578
GGQEDYDRLRP [RAC3_Y64_A59G] | 1.17
ECKASCPGKIT [PRSS3_Y232_Y232C] | 0.461
LLKMMYLMLDN [STAT1_Y203_K201M] | 1.08
NHFKIYNPCAE [PTEN_Y68_L70P_YF] | 0.816
IKKFKYRIEEH [GJA1_Y137_G138R] | 0.653
GRFSGYKSKHG [EPHA3_Y570_C568S] | 0.39

What follows are sequences tested against EPHB1 (UniProt P54762) in the same assay as above.
EPHB1, sequence (P54762 whole entry, looked up): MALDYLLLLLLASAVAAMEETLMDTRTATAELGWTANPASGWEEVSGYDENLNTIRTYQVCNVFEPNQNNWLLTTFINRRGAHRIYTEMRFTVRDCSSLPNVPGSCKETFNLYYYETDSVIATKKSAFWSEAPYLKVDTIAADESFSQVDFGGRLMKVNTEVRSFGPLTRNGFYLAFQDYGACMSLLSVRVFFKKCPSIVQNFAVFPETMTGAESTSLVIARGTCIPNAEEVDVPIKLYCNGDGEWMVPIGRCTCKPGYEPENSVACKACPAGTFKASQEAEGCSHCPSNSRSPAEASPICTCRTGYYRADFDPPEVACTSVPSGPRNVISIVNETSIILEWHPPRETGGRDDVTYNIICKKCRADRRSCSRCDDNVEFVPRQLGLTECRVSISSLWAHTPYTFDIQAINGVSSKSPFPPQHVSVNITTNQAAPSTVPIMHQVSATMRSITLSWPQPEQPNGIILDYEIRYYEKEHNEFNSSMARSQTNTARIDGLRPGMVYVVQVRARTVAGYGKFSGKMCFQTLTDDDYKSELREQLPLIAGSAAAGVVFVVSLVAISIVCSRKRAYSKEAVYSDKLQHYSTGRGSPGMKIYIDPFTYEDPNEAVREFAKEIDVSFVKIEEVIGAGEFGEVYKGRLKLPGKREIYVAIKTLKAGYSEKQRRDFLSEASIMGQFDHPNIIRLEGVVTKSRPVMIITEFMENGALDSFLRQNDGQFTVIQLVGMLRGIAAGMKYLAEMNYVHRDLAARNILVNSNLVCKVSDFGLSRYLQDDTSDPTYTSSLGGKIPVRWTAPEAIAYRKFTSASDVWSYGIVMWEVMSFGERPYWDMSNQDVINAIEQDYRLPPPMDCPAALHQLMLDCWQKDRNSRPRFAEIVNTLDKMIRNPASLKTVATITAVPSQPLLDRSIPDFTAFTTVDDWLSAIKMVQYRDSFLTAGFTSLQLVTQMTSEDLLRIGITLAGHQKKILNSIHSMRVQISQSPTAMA

Sequence | phosphorylation enrichment
VVLEDYLDIKN [CLCNKB_Y138] | 0.499
SPPPAFTPMSG [ERBB4_Y1056_Y1056F] | 0.349
HSDYQYSQRSQ [PKP2_Y168] | 0.495
VRQQVYKKVEE [HADHA_Y283] | 0.378
FPHVIYARLWR [SMAD4_Y95] | 3.11
HVSISYDIPLT [GAB1_Y307_P311L] | 1.19
RELGEYPLAEY [ALDH1A3_Y492_A493P] | 0.484
RLAQRYLIWEC [SCN5A_Y694] | 0.943
EPFEVYRIVPE [IRF8_Y110_K108E_YF] | 0.662
SFNNKYGMVAQ [APOB_Y276_K273N_YF] | 0.332
QGCSIYKDYYR [PLA2G2D_Y82] | 1.68
TTPGPYRSIYF [MPG_Y71] | 0.268
PYRQWYESHYA [RPS8_Y113] | 2.82
GMTRNYIIFIE [BCO2_Y294] | 0.649
IKIMGSSIRTI [IDS_Y490_Y490S] | 0.436
IKRIDYEFVEM [ADA_Y84_A83D] | 6.08
LTNDRYVATLT [IL6ST_Y396_L397V] | 0.607

Sequence | phosphorylation enrichment
GTCGGYCSVLG [RAB18_Y202_A198T] | 0.344
VRFVDYVLFRS [FAM189B_Y361_S358F] | 2.13
MALDRYVAICK [OR2B11_Y127] | 0.581
MTKEQYIKMNQ [ARFGEF2_Y797_R802Q] | 0.38
NIFSFYLSRDP [CTSD_Y232] | 0.551
FGTAQYCCRMG [LRRK2_Y2023_I2020T_YF] | 0.598
KKHFSYAWPFY [BRDT_Y291] | 0.622
DGTGHYLGNAC [GATA5_Y208_C210G] | 0.471
LSSNLYYRWLT [CNGA3_Y168_P163L] | 7.53
MCDSHYLESRS [CLK1_Y56] | 0.495
GGQEDYDRLRP [RAC3_Y64_A59G] | 0.566
ECKASCPGKIT [PRSS3_Y232_Y232C] | 0.336
LLKMMYLMLDN [STAT1_Y203_K201M] | 0.946
NHFKIYNPCAE [PTEN_Y68_L70P_YF] | 0.494
IKKFKYRIEEH [GJA1_Y137_G138R] | 0.392
GRFSGYKSKHG [EPHA3_Y570_C568S] | 0.34

Reference: the supplement of paper PMC10065799, “High-throughput profiling of sequence recognition by tyrosine kinases and SH2 domains using bacterial peptide display” (eLife, 2023)
